Source: the Immune Epitope Database (IEDB)

How the values were obtained:
Assay in all cases: IEDB peptide-MHC binding, purified MHC/competitive/radioactivity; filed as Kd, often an IC50 or EC50 that approximates it; ≥ and ≤ were set here for values at or beyond the usual limits of such assays
HLA-A*02:03 = target: HLA-A*02:03
HLA-A*02:02 = target: HLA-A*02:02
HLA-A*02:06 = target: HLA-A*02:06
HLA-A*11:01 = target: HLA-A*11:01
HLA-A*33:01 = target: HLA-A*33:01
HLA-A*03:01 = target: HLA-A*03:01
HLA-A*31:01 = target: HLA-A*31:01
HLA-A*68:01 = target: HLA-A*68:01
[1] = source organism: SARS coronavirus Tor2
[2] = source organism: Vaccinia virus WR
[3] = source organism: Mammarenavirus tacaribeense
[4] = source organism: Mammarenavirus machupoense
[5] = source organism: Dengue virus 4 Dominica/814669/1981
[6] = source organism: Dengue virus 3 Martinique/1243/1999

Sequence IVDTVSALV has a Kd (HLA-A*02:03; [1]) of 528 nM, a Kd (HLA-A*02:02; [1]) of 16.6 nM and a Kd (HLA-A*02:06; [1]) of 42.9 nM.
NQLDSSNKSM showed a Kd (HLA-A*02:03; [2]) of no less than 30000 nM, a Kd (HLA-A*02:02; [2]) of 1780 nM and a Kd (HLA-A*02:06; [2]) of 635 nM.
HTYHLENDKI showed a Kd (HLA-A*02:03; [2]) of 13700 nM, a Kd (HLA-A*02:02; [2]) of 1790 nM and a Kd (HLA-A*02:06; [2]) of 1990 nM.
For IAVFDSKLI, the Kd (HLA-A*02:03; [2]) was 11900 nM, the Kd (HLA-A*02:02; [2]) was 7850 nM and the Kd (HLA-A*02:06; [2]) was 11900 nM.
YNCKCCWFA was tested, and the Kd (HLA-A*02:03; [3]) was no less than 31800 nM, the Kd (HLA-A*02:02; [3]) was 16000 nM and the Kd (HLA-A*02:06; [3]) was no less than 77000 nM.
KVTGSYNLV gave a Kd (HLA-A*02:03; [2]) of 43.1 nM, a Kd (HLA-A*02:02; [2]) of 66.3 nM and a Kd (HLA-A*02:06; [2]) of 193 nM.
For IIELPYVGDT, the Kd (HLA-A*02:03; [2]) was 4420 nM, the Kd (HLA-A*02:02; [2]) was 13700 nM and the Kd (HLA-A*02:06; [2]) was 16900 nM.
Sequence LNKSDSSWAV has a Kd (HLA-A*02:03; [4]) of 5250 nM, a Kd (HLA-A*02:02; [4]) of 550 nM and a Kd (HLA-A*02:06; [4]) of 2190 nM.
In the case of KLRDSYTQV, the Kd (HLA-A*02:03; source organism: Dengue virus 1 Nauru/West Pac/1974) is reported as 16 nM.
IITILQDIV showed a Kd (HLA-A*02:03; [2]) of 666 nM, a Kd (HLA-A*02:02; [2]) of 827 nM and a Kd (HLA-A*02:06; [2]) of 658 nM.
ELAAHQKKIL showed a Kd (HLA-A*02:03; source organism: Homo sapiens) of 19000 nM.
Work on YVLGVFLRKL yielded a Kd (HLA-A*02:06; [5]) of 81.5 nM.
Sequence KVDNFTMGV has a Kd (HLA-A*02:06; [6]) of 4.24 nM.
With LALKNSQAEL the Kd (HLA-A*02:03; [2]) was 333 nM, the Kd (HLA-A*02:02; [2]) was 741 nM and the Kd (HLA-A*02:06; [2]) was 1250 nM.
With DLEALKKETI the Kd (HLA-A*02:06; source organism: Homo sapiens) was no less than 97400 nM.
For IVNSVLLFL, the Kd (HLA-A*02:03; [1]) was 179 nM, the Kd (HLA-A*02:02; [1]) was 7.06 nM and the Kd (HLA-A*02:06; [1]) was 30.5 nM.
With KLLSTSNVIT the Kd (HLA-A*02:03; [2]) was 3350 nM, the Kd (HLA-A*02:02; [2]) was 2260 nM and the Kd (HLA-A*02:06; [2]) was 1550 nM.
CVDIFTEGKI gave a Kd (HLA-A*02:03; [2]) of 17500 nM, a Kd (HLA-A*02:02; [2]) of no less than 70000 nM and a Kd (HLA-A*02:06; [2]) of no less than 20900 nM.
IQKDINITHT was tested, and the Kd (HLA-A*02:03; [2]) was 340 nM, the Kd (HLA-A*02:02; [2]) was 1360 nM and the Kd (HLA-A*02:06; [2]) was no less than 61700 nM.
For TQHGTILIKV, the Kd (HLA-A*02:06; [6]) was 526 nM.
CTMERTNDL was tested, and the Kd (HLA-A*02:03; [2]) was 25.5 nM, the Kd (HLA-A*02:02; [2]) was 36.2 nM and the Kd (HLA-A*02:06; [2]) was 95.7 nM.
For DIISSKQYPA, the Kd (HLA-A*02:03; [2]) was 2430 nM, the Kd (HLA-A*02:02; [2]) was 552 nM and the Kd (HLA-A*02:06; [2]) was 3100 nM.
In the case of IAEYIAGLKI, the Kd (HLA-A*02:03; [2]) is reported as no less than 23000 nM, the Kd (HLA-A*02:02; [2]) is reported as no less than 28600 nM and the Kd (HLA-A*02:06; [2]) is reported as 10200 nM.
With IASILSLET the Kd (HLA-A*02:03; [2]) was 7480 nM, the Kd (HLA-A*02:02; [2]) was 3670 nM and the Kd (HLA-A*02:06; [2]) was 318 nM.
Sequence KINEMVDEL has a Kd (HLA-A*02:03; [2]) of 75.6 nM, a Kd (HLA-A*02:02; [2]) of 1.42 nM and a Kd (HLA-A*02:06; [2]) of 317 nM.
With AIVLEFFMMV the Kd (HLA-A*02:06; [6]) was 7.87 nM.
For DSVKSILKWH, the Kd (HLA-A*11:01; [4]) was no less than 69700 nM, the Kd (HLA-A*33:01; [4]) was no less than 33100 nM and the Kd (HLA-A*03:01; [4]) was no less than 70000 nM. It also gave a Kd (HLA-A*31:01; [4]) of 2650 nM and a Kd (HLA-A*68:01; [4]) of no less than 70100 nM.
AAIDRQVSVK showed a Kd (HLA-A*11:01; [2]) of 10.6 nM, a Kd (HLA-A*33:01; [2]) of no less than 70000 nM and a Kd (HLA-A*03:01; [2]) of 257 nM. The Kd (HLA-A*31:01; [2]) was 16500 nM and the Kd (HLA-A*68:01; [2]) was 693 nM.
In the case of VSLSAYIIR, the Kd (HLA-A*11:01; [2]) is reported as 1110 nM, the Kd (HLA-A*33:01; [2]) is reported as 4000 nM and the Kd (HLA-A*03:01; [2]) is reported as 8560 nM. It also gave a Kd (HLA-A*31:01; [2]) of 40.2 nM and a Kd (HLA-A*68:01; [2]) of 3310 nM.
In the case of MQKESDDYIK, the Kd (HLA-A*11:01; [1]) is reported as 364 nM, the Kd (HLA-A*33:01; [1]) is reported as no less than 70000 nM and the Kd (HLA-A*03:01; [1]) is reported as 13200 nM. The Kd (HLA-A*31:01; [1]) was 5790 nM and the Kd (HLA-A*68:01; [1]) was 1550 nM.
In the case of IMLEGETKLY, the Kd (HLA-A*11:01; [2]) is reported as 5110 nM, the Kd (HLA-A*33:01; [2]) is reported as no less than 41100 nM and the Kd (HLA-A*03:01; [2]) is reported as 1610 nM. For the same sequence, the Kd (HLA-A*31:01; [2]) was no less than 55800 nM and the Kd (HLA-A*68:01; [2]) was 1010 nM.
With MLYQLLEAVY the Kd (HLA-A*11:01; [2]) was 13700 nM, the Kd (HLA-A*33:01; [2]) was 15700 nM and the Kd (HLA-A*03:01; [2]) was 1460 nM. It also gave a Kd (HLA-A*31:01; [2]) of 10800 nM and a Kd (HLA-A*68:01; [2]) of 3350 nM.
Work on NARGEDTQMR yielded a Kd (HLA-A*11:01; [2]) of no less than 69000 nM, a Kd (HLA-A*33:01; [2]) of 2120 nM and a Kd (HLA-A*03:01; [2]) of no less than 41400 nM. It also gave a Kd (HLA-A*31:01; [2]) of 1770 nM and a Kd (HLA-A*68:01; [2]) of 16.2 nM.
In the case of TLISLNSMY, the Kd (HLA-A*11:01; [2]) is reported as 282 nM, the Kd (HLA-A*33:01; [2]) is reported as 15000 nM and the Kd (HLA-A*03:01; [2]) is reported as 155 nM. For the same sequence, the Kd (HLA-A*31:01; [2]) was 8060 nM and the Kd (HLA-A*68:01; [2]) was 46.8 nM.
With AMHSALAGA the Kd (HLA-A*02:03; [5]) was 8.58 nM.
Work on PVYISQFSY yielded a Kd (HLA-A*11:01; [2]) of 1750 nM, a Kd (HLA-A*33:01; [2]) of 16200 nM and a Kd (HLA-A*03:01; [2]) of 16300 nM. For the same sequence, the Kd (HLA-A*31:01; [2]) was no less than 25900 nM and the Kd (HLA-A*68:01; [2]) was no less than 22400 nM.
Sequence ILMKTANNY has a Kd (HLA-A*11:01; [2]) of 287 nM, a Kd (HLA-A*33:01; [2]) of no less than 77700 nM and a Kd (HLA-A*03:01; [2]) of 325 nM. For the same sequence, the Kd (HLA-A*31:01; [2]) was no less than 77900 nM and the Kd (HLA-A*68:01; [2]) was no less than 20900 nM.
In the case of FQRALIFIL, the Kd (HLA-A*02:06; source organism: Dengue virus 2 Jamaica/1409/1983) is reported as 16.9 nM.
In the case of DTIESAKTK, the Kd (HLA-A*11:01; [2]) is reported as 672 nM, the Kd (HLA-A*33:01; [2]) is reported as 3590 nM and the Kd (HLA-A*03:01; [2]) is reported as 4100 nM. The Kd (HLA-A*31:01; [2]) was 11300 nM and the Kd (HLA-A*68:01; [2]) was 5.82 nM.
With FVSLVKKNKK the Kd (HLA-A*11:01; [2]) was 234 nM, the Kd (HLA-A*33:01; [2]) was 9290 nM and the Kd (HLA-A*03:01; [2]) was 4660 nM. For the same sequence, the Kd (HLA-A*31:01; [2]) was 284 nM and the Kd (HLA-A*68:01; [2]) was 11.5 nM.
In the case of FLIVSLCPTK, the Kd (HLA-A*11:01; [2]) is reported as 2.2 nM, the Kd (HLA-A*33:01; [2]) is reported as 15100 nM and the Kd (HLA-A*03:01; [2]) is reported as 219 nM. For the same sequence, the Kd (HLA-A*31:01; [2]) was no less than 25600 nM and the Kd (HLA-A*68:01; [2]) was 977 nM.
DVSMMSMYGK was tested, and the Kd (HLA-A*11:01; [2]) was 1.28 nM, the Kd (HLA-A*33:01; [2]) was 584 nM and the Kd (HLA-A*03:01; [2]) was 149 nM. The Kd (HLA-A*31:01; [2]) was 231 nM and the Kd (HLA-A*68:01; [2]) was 1.21 nM.
For EIMDKEQLLK, the Kd (HLA-A*11:01; [2]) was 87.8 nM, the Kd (HLA-A*33:01; [2]) was 9850 nM and the Kd (HLA-A*03:01; [2]) was 1320 nM. It also gave a Kd (HLA-A*31:01; [2]) of no less than 50900 nM and a Kd (HLA-A*68:01; [2]) of 5.42 nM.
Work on TSVDIETAIR yielded a Kd (HLA-A*11:01; [2]) of 581 nM, a Kd (HLA-A*33:01; [2]) of 1440 nM and a Kd (HLA-A*03:01; [2]) of 2980 nM. It also gave a Kd (HLA-A*31:01; [2]) of 922 nM and a Kd (HLA-A*68:01; [2]) of 1.35 nM.
FMTATPPGTA showed a Kd (HLA-A*02:03; [6]) of 2.17 nM.
Work on YSKLTKDRK yielded a Kd (HLA-A*11:01; [2]) of 4850 nM, a Kd (HLA-A*33:01; [2]) of no less than 23900 nM and a Kd (HLA-A*03:01; [2]) of no less than 78000 nM. The Kd (HLA-A*31:01; [2]) was 4320 nM and the Kd (HLA-A*68:01; [2]) was 52.3 nM.
